{"source": "paper PMC11220700", "about": "“Activation and Purification of ß‐Glucocerebrosidase by Exploiting its Transporter LIMP‐2 – Implications for Novel Treatment Strategies in Gaucher's and Parkinson's Disease” (Advanced Science, 2024)", "molecules": {"B1": {"name": "FL‐LIMP‐2: full‐length, membrane‐anchored wt LIMP‐2 (protein, UniProt Q14108 1-478, looked up)", "chain": "MGRCCFYTAGTLSLLLLVTSVTLLVARVFQKAVDQSIEKKIVLRNGTEAFDSWEKPPLPVYTQFYFFNVTNPEEILRGETPRVEEVGPYTYRELRNKANIQFGDNGTTISAVSNKAYVFERDQSVGDPKIDLIRTLNIPVLTVIEWSQVHFLREIIEAMLKAYQQKLFVTHTVDELLWGYKDEILSLIHVFRPDISPYFGLFYEKNGTNDGDYVFLTGEDSYLNFTKIVEWNGKTSLDWWITDKCNMINGTDGDSFHPLITKDEVLYVFPSDFCRSVYITFSDYESVQGLPAFRYKVPAEILANTSDNAGFCIPEGNCLGSGVLNVSICKNGAPIIMSFPHFYQADERFVSAIEGMHPNQEDHETFVDINPLTGIILKAAKRFQINIYVKKLDDFVETGDIRTMVFPVMYLNESVHIDKETASRLKSMINTTLIITNIPYIIMALGVFFGLVFTWLACKGQGSMDEGTADERAPLIRT", "modifications": "full-length"}, "B2": {"name": "E326K: PD‐associated GCase variant (protein)", "chain": "ARPCIPKSFGYSSVVCVCNATYCDSFDPPTFPALGTFSRYESTRSGRRMELSMGPIQANHTGTGLLLTLQPEQKFQKVKGFGGAMTDAAALNILALSPPAQNLLLKSYFSEEGIGYNIIRVPMASCDFSIRTYTYADTPDDFQLHNFSLPEEDTKLKIPLIHRALQLAQRPVSLLASPWTSPTWLKTNGAVNGKGSLKGQPGDIYHQTWARYFVKFLDAYAEHKLQFWAVTAENEPSAGLLSGYPFQCLGFTPEHQRDFIARDLGPTLANSTHHNVRLLMLDDQRLLLPHWAKVVLTDPEAAKYVHGIAVHWYLDFLAPAKATLGKTHRLFPNTMLFASEACVGSKFWEQSVRLGSWDRGMQYSHSIITNLLYHVVGWTDWNLALNPEGGPNWVRNFVDSPIIVDITKDTFYKQPMFYHLGHFSKFIPEGSQRVGLVASQKNDLDAVALMHPDGSAVVVVLNRSSKDVPLTIKDPAVGFLETISPGYSIHTYLWRRQ"}, "B3": {"name": "L444P: disease‐associated GCase variant (protein)", "chain": "B2 chain with K326E, L444P"}, "B4": {"name": "N370S: disease‐associated GCase variant (protein)", "chain": "B2 chain with K326E, N370S"}}, "key": {"[1]": {"tested_on": "GCase variants in HEK 293T cells", "experiment": "Western blot of GCase in LE fractions after co‐expression with FL‐LIMP‐2", "assay_type": "cell-based, human", "settings": "versus FL‐LIMP‐2‐3xD", "description": "SDS PAGE was performed using a Tris‐glycine buffer system (resolving buffer: ThermoFisher Scientific Inc., Waltham, MA, United States, #HC2215; stacking buffer: ThermoFisher Scientific Inc., Waltham, MA, United States, #HC2115; running buffer: 25 mM Tris, 192 mM glycine, […]). All samples were prepared by adding 5× Laemmli buffer (0.3 M Tris‐HCl, pH 6.8, 10% w/v SDS, 50% v/v glycerol, 5% v/v β‐mercaptoethanol, 5% w/v bromophenol blue) to the samples in a 1:5 ratio and heating the samples for 5 min at 95 °C. The samples were then separated over a 10% polyacrylamide gel. After SDS PAGE, wet blotting was performed to transfer the proteins onto a PVDF membrane (Merck Millipore, Billerica, MA, United States, #IPFL00010). […] After incubation, membranes were washed three times with TBS‐T (TBS + 0.1% v/v TWEEN‐20) before incubation with secondary antibodies for 2 h at RT followed by three more washing steps with TBS‐T. The fluorescence‐based acquisition was done using an Odyssey (LI‐COR Biosciences, Lincoln, NE, United States) or IBright (ThermoFisher Scientific Inc., Waltham, MA, United States) imaging system. […]\nQuantification of western blot data was performed in ImageStudioLite 5.2 (LI‐COR Biosciences, Lincoln, NE, United States). […]"}, "[2]": {"tested_on": "GCase variants in HEK 293T cells", "experiment": "GCase activity in LE fractions after co‐expression of GCase variants with FL‐LIMP‐2", "assay_type": "cell-based, human", "settings": "versus FL‐LIMP‐2‐3xD", "description": "(§1) HEK 293T cells (Leibniz Institute DSMZ‐German Collection of Microorganism and Cell Cultures GmbH, Braunschweig, Germany) were cultured on TC dishes (Sarstedt, Nümbrecht, Germany, #83.3902, #83.3903) in Dulbecco's modified eagle medium (DMEM, Gibco, Carlsbad, CA, United States) supplemented with 10% fetal calf serum (FCS, PANbiotech, Aidenbach, Germany) and 1× penicillin/streptomycin (Sigma‐Aldrich, St. Louis, MO, United States, #P0781) at 37 °C, 5% CO2 and 95% humidity. Passaging was done at 70–90% confluence by detaching with trypsin (PAN‐Biotech, Aidenbach, Germany, #P10‐023100) for 5 min and transferring part of the culture to a new dish containing fresh medium. The HEK 293T cells were transfected using PEI at 60–70% confluence. For a 10 cm TC dish, the transfection mix was prepared by adding 5 µg plasmid DNA, 15 µg of PEI (ratio of 1:3 DNA to PEI) to 300 µl DMEM without FCS. After incubation for 25 min at room temperature, the mix was added to the cells. If the cell supernatant was analyzed, the cells were washed twice with phosphate‐buffered saline (PBS, Gibco, Carlsbad, CA, United States) and the medium was changed to DMEM without FCS 16 h after transfection.\nActivity of GCase‐containing samples (recombinant protein, cell lysate, LE fractions, conditioned culture medium) was measured using the synthetic substrate 4‐methylumbelliferyl‐β‐D‐glucopyranoside (4MU, Merck Millipore, Billerica, MA, United States, #M3633). […] of the sample (cell supernatant, SEC fractions) or 2.5 µg of total protein from whole‐cell lysates were added to the well of a black 96‐well Maxisorp plate (ThermoFisher Scientific Inc., Waltham, MA, United States, #437 111). The reaction volume was then increased to 100 µL with GCase activity buffer (see paragraph “Cell Lysis”) and a final concentration of 1 µM of 4MU substrate was added. After incubation at 37 °C for 30 min, the reaction was stopped by adding 100 µL of stop solution (0.1 M glycine, pH 10.4). GCase activity was quantified via fluorescence of released 4‐methylumbelliferone (endpoint measurement) using an Infinite 200 Pro (TECAN, Männedorf, Switzerland), SpectraMax Gemini (Molecular Devices, San José, CA, United States) or ClarioStar (BMG LABTECH, Ortenberg, Germany) multiplate reader (λ ex: 365 nm; λ em: 445 nm).\nFor evaluation, all data sets obtained for GCase enzymatic activity were baseline‐corrected and normalized to the overall signal (either total signal or average of controls) within each replicate experiment to correct for signal differences between different measurement devices and replicate measurements."}, "[3]": {"tested_on": "GCase variants", "settings": "cited from earlier work", "excerpt": "The link between GCase and PD was first established when studies found an increased prevalence of PD in GD patients and their relatives.^[ [14], [15], [16] ^] […] All three variants are characterized by compromised stability and/or enzyme activity. The L444P variant ..."}, "[4]": {"tested_on": "GCase variants in HEK 293T cell lysates", "experiment": "GCase activity in cell lysates of cells overexpressing GCase variants", "assay_type": "cell-based, human", "settings": "4MU; for GCase activity compared with mock: cell lysates, N370S n = 3, L444P n = 5", "description": "as §1\nHarvested cells were washed three times with cold PBS and pelleted (1.000 × g, 3 min, 4 °C). […] Protein concentrations were determined using Pierce BCA Protein Assay Kit (ThermoFisher Scientific Inc., Waltham, MA, United States, #23 227).\nActivity of GCase‐containing samples (recombinant protein, cell lysate, LE fractions, conditioned culture medium) was measured using the synthetic substrate 4‐methylumbelliferyl‐β‐D‐glucopyranoside (4MU, Merck Millipore, Billerica, MA, United States, #M3633). […] GCase activity was quantified via fluorescence of released 4‐methylumbelliferone (endpoint measurement) using an Infinite 200 Pro (TECAN, Männedorf, Switzerland), SpectraMax Gemini (Molecular Devices, San José, CA, United States) or ClarioStar (BMG LABTECH, Ortenberg, Germany) multiplate reader (λ ex: 365 nm; λ em: 445 nm). […]"}}, "note": "Where a chain is given by its changes, count along the chain named. In names and notes the source's numbering stands.", "data": [{"molecule": "B1", "values": [{"measurement": "lysosomal GCase levels of wt, E326K and N370S", "setting": "[1]", "result": "exceeded those of the FL‐LIMP‐2‐3xD control"}, {"measurement": "GCase activity in LE fractions, E326K", "setting": "[2]; co‐expression with GCase E326K", "result": "significant increases"}, {"measurement": "GCase transport and activity, L444P", "setting": "[2]; co‐expression with GCase L444P", "result": "both transport and activity could not be rescued by LIMP‐2"}, {"measurement": "GCase activity in LE fractions, N370S", "setting": "[2]; co‐expression with GCase N370S", "result": "no increase in enzymatic activity could be determined"}, {"measurement": "GCase activity in LE fractions, wt", "setting": "[2]; co‐expression with GCase wt", "result": "significant increases"}]}, {"molecule": "B2", "values": [{"measurement": "residual activity of GCase variant (literature)", "setting": "[3]", "result": "≈ 40%"}, {"measurement": "residual activity of GCase variant", "setting": "[4]; HEK 293T cell lysates, versus wt, n = 5, mean ± SEM", "result": "40.0 ± 2.2", "unit": "%"}]}, {"molecule": "B3", "values": [{"measurement": "stability and activity of GCase variant (literature)", "setting": "[3]", "result": "impaired stability and highly impaired activity"}, {"measurement": "GCase activity compared with mock", "setting": "[4]", "result": "do not differ significantly from the mock"}]}, {"molecule": "B4", "values": [{"measurement": "stability and activity of GCase variant (literature)", "setting": "[3]", "result": "stable with low residual activity"}, {"measurement": "GCase activity compared with mock", "setting": "[4]", "result": "do not differ significantly from the mock"}]}]}
